Data on 20 sequences can be found in the DeepSol protein solubility set.

This data set in a line: soluble on expression in E. coli; label from the status in PepcDB or PDB records.
With “LVSGVICAAIGAVALLGTQAVLKSTNSTEFCVSCHSMTHPQAEWEGSVHFSNRKGIRAECADCHVPQDSWHYVKAKVAAVKDVWHTFVTNKIPDQEAYEKHRLEMAQHVWQDMKETDSATCRSCHSFDAMVLAEQREAAQKMHKIAQETNQTCIDCHKGIAHFMPEMPADNSAALGELAKHGGKFNSADKVLYSLAMTSAKLAQGSEIRLLPFAELHNWQEEGDKIVAVVKGWQQVGAEGVIYSGLGQRIMVGLVDDAAKDKLTVHQVVNDKVTNSDWKEVSTSVSLPKAALTADIKSLNDFGSNLNQTHCSGCHAPISANHYTA”, the “soluble on expression in E. coli” value is reported as “not soluble”.
To “LVSITDLQGRILYANDNFCAVSRYGREELVGQDHRIVNSGYHGKAYIRDMWRTISRGNIWQGEFCNRRKDGTRYWVDSTIVPLMDNAGKPRQYISIRRDITAQKEAEAQLARLKQAMDANSEMILLTDRAGRIIYANPALCRFSGMAEGELLGQSPSILDSPLADQETLAAMQEALQAGQPWSGRLLNRRRTGPAPHDAEDYWAEISTTPIHTDGNGLVGYVQIQHD” belongs “soluble”; to “MAAAVFHMEILQLNDLSSRLNPLATKNVVLHVCLGVRYFPNSACKSYKDAQALCKDGDGMSLTGPAQSMEKAFFKESVPKVDKCVIFLDGLALNHDEPYNFEFEDETHDGTKNYRFNSEDPNSQTAPNYIVFEYHVSGAHVFDRS”, “not soluble”.
As for “MAADPVFKEALQCIRCASCTNVCPVFQLVSGQVYGYIYNGGIGSVLTAFFNSLEDAVDPQSLCIGCRRCAEVCPAKINIPDLVLKLRERVVTKQGLEHHHHHH”, the entry is “not soluble”; as for “MAAEFVRKFQSFSESDKQWRAREEFIIRNLNRFEDESEIDQLLALSMVWANHVFMGCRYSNELLEKVCGMAEGIVVEDAPHFTTRDEIMKQRNQ”, “soluble”; as for “MAAIDAALKAGEKILSIYEDPKSDFEIERKADNSPLTIADRKAHEAIVAILNETPFPVLSEEGKHMDYAVRRGWDTLWIVDPLDGTKEFIKRNGEFTVNIALVQNAVPVMGVIYVPVKKELYFAVEGTGAYKCSGIVGLEDEGVTLQQMIEKSERMPLADARDHFIAVASRSHLTPETETYIADLKKKHGNVELISSGSSIKICLVAEGKADVYPRFAPTMEWDTAAGHAIARAAGMEVYQAGKEEPLRYNKEDLLNPWFIVEAKRER”, “soluble”.
As for “MAAKVVLDFEKPLYELEEKLNEMRVYLKSGEVDSMSEGRAGLKREIESLEAKVESLRKTIYKNLTRWQKVQLARHPERPYTLDYIYMMMKDFVELSGDRNFGDDKAIIGGFARLEDESAGFSQSVMVIGHQKGRDTKSNLYRNFGMAQPEGYRKALRLMKLAEKFRKPVITLIDTPGAFPGIEAEERGQAEAIARNLYEMAALKVPVICVIIGEGASGGAIGIGVGDRILMAENAWYSVISPESCSSILWRSWNFKEQAAEALKLTADDLLAQGIIDRIVTEPLGGAHHNPEQMASTLKSILIEELQGLLTKDARTLVDERIAKFSGMGVWEES”, the entry is “not soluble”; as for “MACAAARSPADQDRFICIYPAYLNNKKTIAEGRRIPISKAVENPTATEIQDVCSAVGLNVFLEKNKMYSREWNRDVQYRGRVRVQLKQEDGSLCLVQFPSRKSVMLYAAEMIPKLKTRTQLEHHHHHH”, “soluble”; as for “MADDSVLPSPSEITSLADSSVFDSKVAEMSKENLCLASTSNVDEEMPQVEARVIMVQDAGKQEELLKALKEMKVPCVKMDSMEEFESLDSPEFENIFVVTDFQNSVFNDLYKADCRIVGPPVILNCAQRGEPLPFSCRPLYCTSMLNLVLCFTGFRKKEELVKLVTLVHHMGGVIRKECNSKVTHLVANCTQGEKFRVAVSLGTPIMKPEWIYKAWERRNEQCFCAAVDDFRNEFKVPPFQDCILSFLGFSDEEKHSMEEMTEMQGGSYLPVGDERCTHLIVEENTVKDLPFEPSKKLFVVKQEWFWGSIQMDARAGETMYLYEKANTPELKKSVSLLSLSTPNSNRKRRRLKETLAQLSRETDLSPFPPRKRPSAEHSLSIGSLLDISNTPESSIHYGETPKSCAKSSRSSTPVPPKQSARWQVAKELYQTESNYVNILATIIQLFQVPLEEEGQRGGPILAPEEIKTIFGSIPDIFDVHMKIKDDLEDLIANWDESRSIGDIFLKYAKDLVKTYPPFVNFFEMSKEMIIKCEKQKPRFHAFLKINQAKPECGRQSLVELLIRPVQRLPSVALLLNDLKKHTADENPDKSTLEKAIGSLKEVMTHINEDKRKTEAQKQIFDVVYEVDGCPANLLSSHRSLVQRVETVSLGEHPCDRGEQVTLFLFNDCLEIARKRHKVIGTFRSPHDRTRPPASLKHIHLMPLSQIKKVLDIRETEDCHNAFALLVRPPTEQANVLLSFQMTSEELPKESWLKMLCRHVANTICKADAENLMYVADPESFEVNTKDMDSTLSRASRAIKKTSKKVTRAFSFSKTPKRALRMALSSSHSSEGRSPPSSGKLAVSRLSSTSSLAGIPSPSLVSLPSFFERRSHTLSRSTTHLI”, “soluble”.
On to “MADEPLHYGEDYHFIHATSAASGLGVSVLPDLYCHTIQIVNICLVGRPDDHAFVLVDAGMPGSADDIVSVVEDRFGSGSRPQAIVLTHGHFDHVGAIVELVKHWNVPVYAHPAELPYLTGKASYPEPDASVEGGFIAKISPFFPNEPIQLGNRVQPLPADGTVPHLPEFRWIHTPGHTPGHISLFRPRDAALIAGDAFVTVRQDSLYKVLTQQIEISGPPRYYTIDWRAARESVRKLAALFPSVAITGHGAPVAGKELREGLTKLARDFDRIATPDYGKYVH”, for which the “soluble on expression in E. coli” value was “soluble”.
In the case of “MADETELKRLYWHSRRGMLELDVLLVPFVQEVYPGLDAEDQARFRKLLECEDQDMFGWFMQRGEPEDADLRRMVRMILDRVQPD”, the “soluble on expression in E. coli” value is “not soluble”.
For “MADEVIEYKFICPNITIYRESLQHLYTSFAKGLKCVWKTRNTSGQTFFSWEFDLNELKNQGIDGLMGRISVNSDSIDLLNVQIDLKNSTEIIERVVHLYHNNYQYGYNYIPSATFEYSFVPYYAQAEGSLYDQMFLPSHENDAILVIGKKKLHVCKAFLSYHSSFFRAIFSSTFKEGQMSEIPIKDVTYKDFALMLSTIYPDAVFPNDRTAEKLLEMGDRFIIQSVINHVEYHLLHNTKIGNEKLMWMADRYGMSKLLVKSIRQMDSIEKAKALKSSPDYAKLSKEAKEKILDRLMALI”, the “soluble on expression in E. coli” value was “not soluble”.
“MADGINSTVTVERSDGPRHRGTAAGIGGLDLDLEDVTHKELIEARRTGDVGLVHSWELVTAVDGPGTRMTMFMSGCPLRCLYCHNPDTMGMKEGTVERVESIVKKIKRYRNVFKASGGGLTISGGEPLFQIAFTRRVLKEVHDAGIHTTIDTSGYLGARLTDEDLENIDLVLLDVKSGDEETYHRVSGGRELQPTIDFGNRLNAIGKPVWIRFVLVPGVSDAPENINNVADIVAQWKDNVERVEVLPFHNMGADKWHELGLNYELEDTKPPTQESVEFAKETFRSRGLTVY”: the “soluble on expression in E. coli” value is reported as “not soluble”.
To “MADKSTEVEKAIDPIIDLGNLLFIDREPIQGDASEGLEERARKNTQLLFNNIWQLEQKRVEEAIIVTLPPATYRLPREKRLPEKKEPTKWEKYAAEKGIEKRKKDKKVFDEATKEWKPTYGYRRGNDDTKDWLIEIPDNAEDPNKDFFAERREKKKERVAKNDMQRMKNLARQMKTTVKSGPSTEKMIGVGVDAKEKSKQQVRFAVDRAKLATASAGKFQEGLKGEKANVKTGKKRKFEANEAPVSGEKERALQILQRMKSKKAKIVEEKAAAVAGPLREKKEKSERKGAKDQTRQKSQIHRQQWFKNKVDGKKKGTGGAGKKGANKAKARKG” belongs “not soluble”; to “MADRANNDDDVDRQPLPIADDADDDVDGIDEMFNNEDEDPEDEEGENLFGDDMERDYREQPELDQYSESGMDDASDVGSLSVSARRAAEREMAQRDQLLDDDALMYEDGDSEEVDTRRRGRGRRGRGDAADDDSVPMEEEDIPVDILENIRGRTIRDHVSDEAVAKEIERRFKNFLRSFHEPGNKQTKYIQMIKSMAADNRESLEVSFTDLSDDNGEQNISYFLPEAPNEMLAIMDRAATEVVMNMYPFYSRVCNEIKVRISQLPVEEDIRMLRQVHLNMLIRTAGVVTIASGILPQLAVVKYDCVACGYLLGPFVQQNDEEVRPTICPSCQGKGPFELNVENTVYHNYQRITMQESPNKVAAGRLPRSKDVILLGDLCDSCKPGDEIEVTGVYTNNFDGSLNYKQGFPVFNTLIHANHITNKDKMASDQLTDEDIKAIRELSQDPNISQRVFSSIAPSIYGHDDVKRAIALALFRGEAKNPGAKHRLRGDINVLLCGDPGTAKSQFLRYAAHIAPRSVLTTGQGASAVGLTAYVQRHPVTREWTLEAGAMVLADKGVCLIDEFDKMSDQDRTSIHEAMEQQSISISKAGIVTSLHARCTVIAASNPIGGRYNPTRTFAENVDLTEPILSRFDVLCVIRDSVDSVEDERLAKFVVGNHRTHHPDAKKIVKEGDELEEDQMDERTGVRLIPQDLLRKYIIYAREKCHPTLPEQHSEKFSNIFAQMRKESMATGSVAITVRHVESMIRLSEAHAKLHLRSYVNDEDCAAAIRVMLESFVNTQKASIMRMMKKTFSRHLTENRSANELLLFILKQLIRQQMHYATARAAAGTILQSVTIPESEFIEKAQQLRIENVKPFYTSEIFASNNFLYDPSKKTIVQEIF”, “not soluble”.
As for “MADRGGFQSGFGGRGGGRGGARPAGDRPAGRGGRGGRGGRGGRGGRAGRGGEKETEWTPVTKLGRLVKEKKITTLEEIYLNSLPIKEFEIIDALCSNLKDEVLKISPVQKQTTAGQRTRFKAFVAIGDHAGHVGLGVKCSKEVATAIRGAIVAAKLAVVPVRRGYWGNKIGLPHTVPCKVTGKCASVMVRLIPAPRGTGIVSAPVPKKLLHMAGIEDCYTAAKGSTATLGNFAKATYAALQRTYSYLTPDLWKEEALEKSPYQRHHEYLARN”, the entry is “not soluble”.
As for “MADRPIEIVDRQNVLTVHLPGTYTVMYDARYCYVSYIPVSETVAEFTLTGFKYPLTNCHISRGSTLCISNELIQSSGTFSFSEGILMMIRSSDSLEHHHHHH”, the entry is “not soluble”.
For the sequence “MADRRRTDDNKGAREVVLLLNIGSPDSPEEKDVARYLNSFLTDRRIITLPFLLRQLLVRGIITPFRKKSSAQKYRTVWDESTRSFPLISHTKAIARALAHTGREVHVAMRYGKPAVADVLKELPHGRSLVVLPLFPHYAMSSYETAVEHCKAEIRRLCPNLSFRVVQPFYAHEAYIRVLADNIRPYLTKPFDKLILSYHGIPRDHLDKTTRQALNLRHPEGCCTEEDPTANVCYRYQTYRTTALIREALGLAEEQVEQVFQSRVGHTEWLRPYLIERLSAWPQEETKRILIACPSFVCDCLESLEEVADHGQSIFKKAGGADFTYIPCLNSGANWIDALRNILEE”, the “soluble on expression in E. coli” value is “not soluble”.
As for “MADSIASIGNRYIDNNDTDMHFLRTWAVRRCQHTDWDICERIRLGELKEARDRAAQMEKTMRWWSSCTADWRNRWSAVRDERNRAREEAETLRLNYDLLLEEKRFLAEQLYHVDSESDEPKLEISQKPEIDGTKRNAVVQTIHSISCDPPSILVKSYSAAQIEAVLREPSVDEPPVETTKSDINEELKAENEFLKDQANELNKCREKIETDGKTIQDLRLRIQSMERELMAAKNSKRASSS”, the entry is “not soluble”.
As for “MADTSPRESKLNKQDQDLHLEIDETGLACKSEVKKRWLGARGTAGLYGNGKYYYEVTITSKGLCRVGWATLGGSLNIGKGLDSFGYGGTGMKSTHKKFDDYGLPFTLNDVIGCYLDLDSRTIWWSKNGEQFPAAFSIDVKYKNSNTCLFPAVLCQNSSLSVNFGSQPFKFPPGNQFTAVSDAPNENVNWWSYEEQNSFEHVVVKLPFAVEEDVHNEFRMHTKLMLTELKRTQCKQDKDGSIRRTLQPISKTICAFLNTDGGRLFLGVNDDKVIKGISMSKNMIYHFFGSLRHMCENFKPCSPLCRIKVSILEVIPVGVIKVKLRKADLLKEEAHDFPKLACHSVGGSFCDCFLEINKAPTKQYLLIIQVSPPNPNSRTTIFQNEEGLVYRRRMASNKCVYLDDLRRMMNEKNQVFVDLPDEARAEIDSFSKFD”, the entry is “not soluble”.
